Measured values as given in the supplement of paper PMC9112550, “Optimization of the antimicrobial peptide Bac7 by deep mutational scanning” (BMC Biology, 2022).

Tested on: Escherichia coli TOP10
Test: shrunken log2 fold change of peptide-encoding DNA abundance (4.5 h post-induction vs induction); higher = less antimicrobial activity (less host growth inhibition)
Conditions: time post-induction: 4.5 h; library: site-saturation at positions 5, 18, 19, 20
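Also: peptides expressed intracellularly from a pBAD plasmid library in pooled LB shake-flask culture, induced with 0.3% L-arabinose, DNA abundance read by NGS, three biological replicates, DESeq2 with apeglm shrinkage.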

Row | Sequence | shrunken log2 fold change
1 | RRIRRRPPRLPRPRPRPVQYPRP | -0.00909
2 | RRIRIRPPRLPRPRPRPFVKPRP | -0.691
3 | RRIRDRPPRLPRPRPRPYKHPRP | -1.13
4 | RRIRGRPPRLPRPRPRPPDSPRP | 0.952
5 | RRIRCRPPRLPRPRPRPWVTPRP | -0.652
6 | RRIRIRPPRLPRPRPRPRAKPRP | 0.139
7 | RRIRTRPPRLPRPRPRPWYFPRP | -0.432
8 | RRIRIRPPRLPRPRPRPISKPRP | -0.161
9 | RRIRLRPPRLPRPRPRPDWNPRP | -0.689
10 | RRIRFRPPRLPRPRPRPCHSPRP | -0.0231
11 | RRIRPRPPRLPRPRPRPSSLPRP | 0.0404
12 | RRIRERPPRLPRPRPRPKCPPRP | 0.0136
13 | RRIRCRPPRLPRPRPRPPDFPRP | -0.00542
14 | RRIRDRPPRLPRPRPRPALTPRP | 0.468
15 | RRIRHRPPRLPRPRPRPVRPPRP | 0.365
16 | RRIRYRPPRLPRPRPRPLYLPRP | -0.992
17 | RRIRLRPPRLPRPRPRPCGKPRP | -0.196
18 | RRIRPRPPRLPRPRPRPNHWPRP | -0.0328
19 | RRIRVRPPRLPRPRPRPNLGPRP | -0.185
20 | RRIRPRPPRLPRPRPRPAHAPRP | 0.236
21 | RRIRLRPPRLPRPRPRPIYGPRP | 0.0275
22 | RRIRHRPPRLPRPRPRPQELPRP | -0.122

Row | Sequence | shrunken log2 fold change
23 | RRIRLRPPRLPRPRPRPWSAPRP | 0.539
24 | RRIRYRPPRLPRPRPRPDWYPRP | -0.968
25 | RRIRIRPPRLPRPRPRPPWHPRP | -0.126
26 | RRIRDRPPRLPRPRPRPIQAPRP | 0.119
27 | RRIRGRPPRLPRPRPRPINEPRP | 0.0939
28 | RRIRERPPRLPRPRPRPWLRPRP | 0.0269
29 | RRIRTRPPRLPRPRPRPITAPRP | -0.0416
30 | RRIRKRPPRLPRPRPRPDKRPRP | -0.0063
31 | RRIRERPPRLPRPRPRPYPFPRP | -0.52
32 | RRIRVRPPRLPRPRPRPWCAPRP | -0.0313
33 | RRIRERPPRLPRPRPRPVGWPRP | 0.888
34 | RRIRSRPPRLPRPRPRPMVSPRP | 0.0287
35 | RRIRSRPPRLPRPRPRPMKNPRP | -0.145
36 | RRIRVRPPRLPRPRPRPQQVPRP | -0.0278
37 | RRIRMRPPRLPRPRPRPVPAPRP | 1.11
38 | RRIRKRPPRLPRPRPRPTPQPRP | 0.896
39 | RRIRIRPPRLPRPRPRPGGFPRP | 0.179
40 | RRIRCRPPRLPRPRPRPEACPRP | 0.0368
41 | RRIRVRPPRLPRPRPRPYQGPRP | -0.236
42 | RRIRFRPPRLPRPRPRPIGHPRP | -0.115
43 | RRIRLRPPRLPRPRPRPCWGPRP | 0.00437
44 | RRIRWRPPRLPRPRPRPATHPRP | 0.0538

Row | Sequence | shrunken log2 fold change
45 | RRIRWRPPRLPRPRPRPDSNPRP | -0.189
46 | RRIRWRPPRLPRPRPRPVNRPRP | -0.00204
47 | RRIRRRPPRLPRPRPRPFNMPRP | -0.362
48 | RRIRNRPPRLPRPRPRPNEKPRP | -0.00172
49 | RRIRTRPPRLPRPRPRPKYRPRP | -0.135
50 | RRIRLRPPRLPRPRPRPIAMPRP | -0.0743
51 | RRIRARPPRLPRPRPRPMNMPRP | -0.0785
52 | RRIRTRPPRLPRPRPRPMDRPRP | -0.01
53 | RRIRTRPPRLPRPRPRPGSAPRP | 0.362
54 | RRIRWRPPRLPRPRPRPALEPRP | 0.939
55 | RRIRYRPPRLPRPRPRPAQNPRP | -0.0465
56 | RRIRVRPPRLPRPRPRPLFHPRP | -0.311
57 | RRIRCRPPRLPRPRPRPFMLPRP | -0.697
58 | RRIRCRPPRLPRPRPRPCFSPRP | -0.344
59 | RRIRSRPPRLPRPRPRPLNPPRP | -0.0273
60 | RRIRSRPPRLPRPRPRPYFKPRP | -0.857
61 | RRIRDRPPRLPRPRPRPDDRPRP | 0.108
62 | RRIRRRPPRLPRPRPRPYLHPRP | -0.307
63 | RRIRQRPPRLPRPRPRPRRKPRP | 0.192
64 | RRIRDRPPRLPRPRPRPREKPRP | 0.342
65 | RRIRIRPPRLPRPRPRPETLPRP | -0.102
66 | RRIRARPPRLPRPRPRPNDYPRP | -0.471

Row | Sequence | shrunken log2 fold change
67 | RRIRWRPPRLPRPRPRPQKSPRP | 0.0128
68 | RRIRSRPPRLPRPRPRPFKNPRP | -0.378
69 | RRIRCRPPRLPRPRPRPGFKPRP | -0.226
70 | RRIRPRPPRLPRPRPRPGVHPRP | -0.0724
71 | RRIRQRPPRLPRPRPRPGMRPRP | 0.941
72 | RRIRQRPPRLPRPRPRPWCEPRP | -0.105
73 | RRIRERPPRLPRPRPRPTRTPRP | 0.374
74 | RRIRRRPPRLPRPRPRPIVRPRP | 0.117
75 | RRIRGRPPRLPRPRPRPCKLPRP | -0.378
76 | RRIRYRPPRLPRPRPRPLHRPRP | -0.116
77 | RRIRLRPPRLPRPRPRPMAGPRP | 0.208
78 | RRIRCRPPRLPRPRPRPSIWPRP | -0.342
79 | RRIRPRPPRLPRPRPRPAYEPRP | 0.0834
80 | RRIRDRPPRLPRPRPRPPPTPRP | 0.973
81 | RRIRRRPPRLPRPRPRPCMLPRP | -0.151
82 | RRIRCRPPRLPRPRPRPATEPRP | 0.309
83 | RRIRFRPPRLPRPRPRPERPPRP | 0.415
84 | RRIRPRPPRLPRPRPRPGDTPRP | -0.0266
85 | RRIRWRPPRLPRPRPRPVTNPRP | 0.266
86 | RRIRCRPPRLPRPRPRPDSSPRP | -0.026
87 | RRIRGRPPRLPRPRPRPRIEPRP | 0.249
88 | RRIRSRPPRLPRPRPRPGGHPRP | 0.161

Row | Sequence | shrunken log2 fold change
89 | RRIRLRPPRLPRPRPRPEKWPRP | -0.0497
90 | RRIRLRPPRLPRPRPRPMEIPRP | -0.00427
91 | RRIRKRPPRLPRPRPRPEGYPRP | 0.0317
92 | RRIRIRPPRLPRPRPRPGDKPRP | -0.218
93 | RRIRGRPPRLPRPRPRPEPCPRP | 0.795
94 | RRIRLRPPRLPRPRPRPNTVPRP | -0.0627
95 | RRIRDRPPRLPRPRPRPFLYPRP | 1.81
96 | RRIRNRPPRLPRPRPRPLLMPRP | -0.421
97 | RRIRHRPPRLPRPRPRPRCCPRP | -0.079
98 | RRIRWRPPRLPRPRPRPNHIPRP | -0.569
99 | RRIRLRPPRLPRPRPRPEIYPRP | -0.0581
100 | RRIRSRPPRLPRPRPRPQKSPRP | -0.181
101 | RRIRQRPPRLPRPRPRPRGRPRP | 0.256
102 | RRIRERPPRLPRPRPRPVSYPRP | 0.0843
103 | RRIRCRPPRLPRPRPRPQAPPRP | 0.211
104 | RRIRVRPPRLPRPRPRPDQGPRP | 0.00375
105 | RRIRTRPPRLPRPRPRPRGSPRP | 0.177
106 | RRIRFRPPRLPRPRPRPVAWPRP | 0.119
107 | RRIRYRPPRLPRPRPRPFGIPRP | -0.149
108 | RRIRIRPPRLPRPRPRPFKCPRP | 0.000802
109 | RRIRYRPPRLPRPRPRPSGKPRP | -0.447
